Experimental data from publication doi:10.1101/2022.03.10.483757 (bioRxiv, 2022).

Biological target: the molecule itself
Test: crystal structure

B1: His6-tagged SFPQ-276–535 L534I (domain or fragment, human, UniProt P23246 276-535, looked up)
chain: EGFKANLSLLRRPGEKTYTQRCRLFVGNLPADITEDEFKRLFAKYGEPGEVFINKGKGFGFIKLESRALAEIAKAELDDTPMRGRQLRVRFATHAAALSVRNLSPYVSNELLEEAFSQFGPIERAVVIVDDRGRSTGKGIVEFASKPAARKAFERCSEGVFLLTTTPRPVIVEPLEQLDDEDGLPEKLAQKNPMYQKERETPPRFAQHGTFEYEYSQRWKSLDEMEKQQREQVEKNMKDAKDKLESEMEDAYHEHQANIL
  binding result: binds
